# Laboratory results taken from IntAct's records for PubMed 29039417.
# B1: BBSome complex member BBS5 (Homo sapiens), Q8N3I7 (parent)
# chain: MSVLDALWEDRDVRFDLSAQQMKTRPGEVLIDCLDSIEDTKGNNGDRGRLLVTNLRILWHSLALSRVNVSVGYNCILNITTRTANSKLRGQTEALYILTKCNSTRFEFIFTNLVPGSPRLFTSVMAVHRAYETSKMYRDFKLRSALIQNKQLRLLPQEHVYDKINGVWNLSSDQGNLGTFFITNVRIVWHANMNDSFNVSIPYLQIRSIKIRDSKFGLALVIESSQQSGGYVLGFKIDPVEKLQESVKEINSLHKVYSASPIFGVDYEMEEKPQPLEALTVEQIQDDVEIDSDGHTDAFVAYFADGNKQQDREPVFSEELGLAIEKLKDGFTLQGLWEVMS
# partner: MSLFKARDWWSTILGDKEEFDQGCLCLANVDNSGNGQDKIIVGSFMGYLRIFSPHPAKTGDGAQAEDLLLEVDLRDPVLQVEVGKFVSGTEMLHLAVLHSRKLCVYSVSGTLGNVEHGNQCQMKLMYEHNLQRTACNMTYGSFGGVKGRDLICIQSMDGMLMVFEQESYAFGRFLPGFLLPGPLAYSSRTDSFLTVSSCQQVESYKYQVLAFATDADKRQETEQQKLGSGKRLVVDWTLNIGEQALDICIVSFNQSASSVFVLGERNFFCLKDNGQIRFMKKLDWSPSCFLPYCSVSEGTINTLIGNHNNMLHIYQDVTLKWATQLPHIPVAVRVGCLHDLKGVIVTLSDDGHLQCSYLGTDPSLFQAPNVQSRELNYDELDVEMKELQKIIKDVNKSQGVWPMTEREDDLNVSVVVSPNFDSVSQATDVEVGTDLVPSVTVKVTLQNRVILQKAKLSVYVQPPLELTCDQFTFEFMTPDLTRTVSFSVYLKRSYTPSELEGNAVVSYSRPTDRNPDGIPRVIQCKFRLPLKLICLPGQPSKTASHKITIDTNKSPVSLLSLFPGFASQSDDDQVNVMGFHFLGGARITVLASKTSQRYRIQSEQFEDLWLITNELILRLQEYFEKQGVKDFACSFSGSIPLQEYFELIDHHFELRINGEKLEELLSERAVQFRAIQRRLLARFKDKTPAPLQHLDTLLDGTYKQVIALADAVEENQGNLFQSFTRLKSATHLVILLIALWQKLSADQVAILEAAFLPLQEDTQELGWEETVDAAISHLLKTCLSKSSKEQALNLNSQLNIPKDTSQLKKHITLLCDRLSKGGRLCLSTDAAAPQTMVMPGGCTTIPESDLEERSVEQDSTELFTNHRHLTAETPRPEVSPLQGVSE
# Variants of: B1
# Conditions: with pthb1_human BBS9, Q3SYG4
row,Variant,effect of a mutation on the interaction
1,MSVLDALWEDRDVRFDLSAQQMKTRPGEVLIDCLDSIEDTKGNNGDRGRLLVTNLRILWHSLALSRVNVSVGYNCILNITTRTANSKLRGQTEALYILTKCNSTRFEFIFTNLVPGSPRLFTSVMAVHRAYETSKMYRDFKLRSALIQNKQLRLLPQEHVYDKINGVWNLSSDQGNLGTFFITNVRIVWHANMNDSFNVSIPYLQIRSIKIRDSKFGLALVIESSQQSGGYVLGFKIDPVEKLQESIKEINSLHKVYSASPIFGVDYEMEEKPQPLEALTVEQIQDDVEIDSDGHTDAFVAYFADGNKQQDREPVFSEELGLAIEKLKDGFTLQGLWEVMS [V247I],disrupting interaction strength
2,MSVLDALWEDRDVRFDLSAQQMKTRPGEVLIDCLDSIEDTKGNNGDRGRLLVTNLRILWHSLALSRVNVSVGYNCILNITTRTANSKLRGQTEALYILTKCNSTRFEFIFTNLVPGSPRLFTSVMAVHRAYETSKMYRDFKLRSALIQNKQLRLLPQEHVYDKINGVWNLSSDQGNLGTFFITNVRIVWHANMNDSFNVSIPYLQIRSIKIRDSKFGLALVIESSQQSGGYVLGFKIDPVEKLQESEKEINSLHKVYSASPIFGVDYEMEEKPQPLEALTVEQIQDDVEIDSDGHTDAFVAYFADGNKQQDREPVFSEELGLAIEKLKDGFTLQGLWEVMS [V247E],with no effect
3,MSVLDALWEDRDVRFDLSAQQMKTRPGEVLIDCLDSIEDTKGNNGDRGRLLVTNLRILWHSLALSRVNVSVGYNCILNITTRTANSKLRGQTEALYILTKCNSTRFEFIFTNLVPGSPRLFTSVMAVHRAYETSKMYRDFKLRSALIQNKQLRLLPQEHVYDKINGVWNLSSDQGNLGTFFITNVRIVWHANMNDSFNVSIPYLQIRSIKIRDSKFGLALVIESSQQSGGYVLGFKIDPVEKLQESAKEINSLHKVYSASPIFGVDYEMEEKPQPLEALTVEQIQDDVEIDSDGHTDAFVAYFADGNKQQDREPVFSEELGLAIEKLKDGFTLQGLWEVMS [V247A],with no effect
4,MSVLDALWEDRDVRFDLSAQQMKTRPGEVLIDCLDSIEDTKGNNGDRGRLLVTNLRILWHSLALSRVNVSVGYNCILNITTRTANSKLRGQTEALYILTKCNSTRFEFIFTNLVPGSPRLFTSVMAVHRAYETSKMYRDFKLRSALIQNKQLRLLPQEHVYDKINGVWNLSSDQGNLGTFFITNVRIVWHANMNDSFNVSIPYLQIRSIKIRDSKFGLALVIESSQQSGGYVLGFKIDPVEKLQESKKEINSLHKVYSASPIFGVDYEMEEKPQPLEALTVEQIQDDVEIDSDGHTDAFVAYFADGNKQQDREPVFSEELGLAIEKLKDGFTLQGLWEVMS [V247K],with no effect
5,MSVLDALWEDRDVRFDLSAQQMKTRPGEVLIDCLDSIEDTKGNNGDRGRLLVTNLRILWHSLALSRVNVSVGYNCILNITTRTANSKLRGQTEALYILTKCNSTRFEFIFTNLVPGSPRLFTSVMAVHRAYETSKMYRDFKLRSALIQNKQLRLLPQEHVYDKINGVWNLSSDQGNLGTFFITNVRIVWHANMNDSFNVSIPYLQIRSIKIRDSKFGLALVIESSQQSGGYVLGFKIDPVEKLQEKVKEINSLHKVYSASPIFGVDYEMEEKPQPLEALTVEQIQDDVEIDSDGHTDAFVAYFADGNKQQDREPVFSEELGLAIEKLKDGFTLQGLWEVMS [S246K],with no effect
6,MSVLDALWEDRDVRFDLSAQQMKTRPGEVLIDCLDSIEDTKGNNGDRGRLLVTNLRILWHSLALSRVNVSVGYNCILNITTRTANSKLRGQTEALYILTKCNSTRFEFIFTNLVPGSPRLFTSVMAVHRAYETSKMYRDFKLRSALIQNKQLRLLPQEHVYDKINGVWNLSSDQGNLGTFFITNVRIVWHANMNDSFNVSIPYLQIRSIKIRDSKFGLALVIESSQQSGGYVLGFKIDPVEKLQESVAEINSLHKVYSASPIFGVDYEMEEKPQPLEALTVEQIQDDVEIDSDGHTDAFVAYFADGNKQQDREPVFSEELGLAIEKLKDGFTLQGLWEVMS [K248A],with no effect
7,MSVLDALWEDRDVRFDLSAQQMKTRPGEVLIDCLDSIEDTKGNNGDRGRLLVTNLRILWHSLALSRVNVSVGYNCILNITTRTANSKLRGQTEALYILTKCNSTRFEFIFTNLVPGSPRLFTSVMAVHRAYETSKMYRDFKLRSALIQNKQLRLLPQEHVYDKINGVWNLSSDQGNLGTFFITNVRIVWHANMNDSFNVSIPYLQIRSIKIRDSKFGLALVIESSQQSGGYVLGFKIDPVEKLQESVEEINSLHKVYSASPIFGVDYEMEEKPQPLEALTVEQIQDDVEIDSDGHTDAFVAYFADGNKQQDREPVFSEELGLAIEKLKDGFTLQGLWEVMS [K248E],with no effect
8,MSVLDALWEDRDVRFDLSAQQMKTRPGEVLIDCLDSIEDTKGNNGDRGRLLVTNLRILWHSLALSRVNVSVGYNCILNITTRTANSKLRGQTEALYILTKCNSTRFEFIFTNLVPGSPRLFTSVMAVHRAYETSKMYRDFKLRSALIQNKQLRLLPQEHVYDKINGVWNLSSDQGNLGTFFITNVRIVWHANMNDSFNVSIPYLQIRSIKIRDSKFGLALVIESSQQSGGYVLGFKIDPVEKLQESVKAINSLHKVYSASPIFGVDYEMEEKPQPLEALTVEQIQDDVEIDSDGHTDAFVAYFADGNKQQDREPVFSEELGLAIEKLKDGFTLQGLWEVMS [E249A],with no effect
9,MSVLDALWEDRDVRFDLSAQQMKTRPGEVLIDCLDSIEDTKGNNGDRGRLLVTNLRILWHSLALSRVNVSVGYNCILNITTRTANSKLRGQTEALYILTKCNSTRFEFIFTNLVPGSPRLFTSVMAVHRAYETSKMYRDFKLRSALIQNKQLRLLPQEHVYDKINGVWNLSSDQGNLGTFFITNVRIVWHANMNDSFNVSIPYLQIRSIKIRDSKFGLALVIESSQQSGGYVLGFKIDPVEKLQESVKKINSLHKVYSASPIFGVDYEMEEKPQPLEALTVEQIQDDVEIDSDGHTDAFVAYFADGNKQQDREPVFSEELGLAIEKLKDGFTLQGLWEVMS [E249K],with no effect
